# Data taken from patent publication US20090004163, “METHOD OF ENHANCING PROLIFERATION AND/OR HEMATOPOIETIC DIFFERENTIATION OF STEM CELLS” (THE CHILDREN'S MEDICAL CENTER CORPORATION, published 2009).
# Target: Cdx4 F170L (kggtl240) (Danio rerio, UniProt A8KBT9 A8KBT9:1-270, F170L)
# Test: EMSA; mutation prevents binding to cdx4 consensus site
# Conditions: tags: TNT SP6 IVT (Promega)
# Chain of Cdx4 F170L (kggtl240) (A8KBT9 entry or part of it F170L | F170L F170L, one chain of several): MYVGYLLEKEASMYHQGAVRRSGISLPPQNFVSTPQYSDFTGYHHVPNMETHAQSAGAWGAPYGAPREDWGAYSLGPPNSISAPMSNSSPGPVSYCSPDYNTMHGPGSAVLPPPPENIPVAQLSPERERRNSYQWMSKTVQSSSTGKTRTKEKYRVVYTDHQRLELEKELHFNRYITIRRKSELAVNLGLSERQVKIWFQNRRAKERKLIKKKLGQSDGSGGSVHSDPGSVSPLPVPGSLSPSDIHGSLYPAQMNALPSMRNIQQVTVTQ
binder,measurement,value
consensus cdx binding site probe (dsDNA) DNA 1: GAGAAATTTATATTGT DNA 2: ACAATATAAATTTCTC,binding result,no binding
